Results taken from US20190040156A1 (Eli Lilly, published 2019).

Experiments:
[1] = molecular target: non-cleavable form of human membrane TNFα on CHO cells (human, UniProt P01375 1-233); assay: cell-based or functional assay
human IL-23 [2] = molecular target: T1, human IL-23 (human, UniProt Q9NPF7 20-189; P29460 23-328); assay: cell-based or functional assay
T1 sequence (looked up) 1: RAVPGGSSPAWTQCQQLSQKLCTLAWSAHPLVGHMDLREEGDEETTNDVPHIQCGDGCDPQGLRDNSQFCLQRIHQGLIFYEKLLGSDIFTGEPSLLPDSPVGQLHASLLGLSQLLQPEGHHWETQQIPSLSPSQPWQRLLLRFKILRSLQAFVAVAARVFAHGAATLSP
T1 sequence (looked up) 2: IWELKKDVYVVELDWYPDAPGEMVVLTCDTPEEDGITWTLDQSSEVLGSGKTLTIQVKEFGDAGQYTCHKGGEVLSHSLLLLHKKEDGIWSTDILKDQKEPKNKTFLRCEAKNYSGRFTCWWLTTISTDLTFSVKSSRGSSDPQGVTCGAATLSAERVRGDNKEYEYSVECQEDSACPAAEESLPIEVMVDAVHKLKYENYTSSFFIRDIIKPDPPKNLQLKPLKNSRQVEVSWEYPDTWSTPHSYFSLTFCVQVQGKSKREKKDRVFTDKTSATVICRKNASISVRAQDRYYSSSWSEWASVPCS

human TNFα [3] = molecular target: T2, human TNFα (human, UniProt P01375 77-233); assay: cell-based or functional assay
T2 sequence (P01375 77-233 limits assumed): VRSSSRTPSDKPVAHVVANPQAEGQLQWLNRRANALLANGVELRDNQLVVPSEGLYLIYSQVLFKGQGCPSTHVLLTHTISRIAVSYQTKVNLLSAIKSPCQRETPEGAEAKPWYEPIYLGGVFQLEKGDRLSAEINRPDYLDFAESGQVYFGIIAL

[4] = molecular target: human FcγRIIIa (V158) on Jurkat NFAT-FF reporter cells (human, UniProt P08637 17-254); assay: cell-based or functional assay
Chain of human FcγRIIIa (V158) on Jurkat NFAT-FF reporter cells (P08637 17-254 F176V limits assumed): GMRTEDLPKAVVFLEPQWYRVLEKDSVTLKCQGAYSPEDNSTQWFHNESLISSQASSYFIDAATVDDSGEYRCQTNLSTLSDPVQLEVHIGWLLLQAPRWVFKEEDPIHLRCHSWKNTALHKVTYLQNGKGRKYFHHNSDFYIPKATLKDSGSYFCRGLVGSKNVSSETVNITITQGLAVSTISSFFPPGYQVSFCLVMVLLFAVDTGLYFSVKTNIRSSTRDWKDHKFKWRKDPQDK

human FcγRI (CD64) = molecular target: T3, human FcγRI (CD64) (human, UniProt P12314 16-288, limits assumed); assay: SPR, Biacore T200, antibody captured on protein A, FcγR as analyte, 37 °C, N=3
T3 construct: Soluble analyte in SPR
T3 sequence (P12314 16-288 limits assumed): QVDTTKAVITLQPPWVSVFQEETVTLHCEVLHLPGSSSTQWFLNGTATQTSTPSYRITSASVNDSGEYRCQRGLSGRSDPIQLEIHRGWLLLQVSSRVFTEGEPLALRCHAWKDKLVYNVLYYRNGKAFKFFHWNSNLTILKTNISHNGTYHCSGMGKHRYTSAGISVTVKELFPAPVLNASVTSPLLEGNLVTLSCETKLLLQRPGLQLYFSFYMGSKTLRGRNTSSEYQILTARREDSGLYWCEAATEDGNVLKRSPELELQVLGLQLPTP
Experimental: (§1) A CM5 chip (Biacore P/N BR-100-50) containing immobilized protein A (generated using standard NHS-EDC amine coupling) on all four flow cells is used to employ a capture methodology. IgG bispecific antibody samples are prepared by dilution of approximately 5 μg/mL into running buffer and approximately 300 RU is captured on the flow cells. Human FcγRI (produced from transient CHO cells and purified using IMAC and size exclusion chromatography) is prepared at final concentrations of 200.00, 100.00, 50.00, 25.00, 12.50, 6.25, 3.12, 1.56, and 0.78 nM by two-fold serial dilution into running buffer. Human FcγRIIa, FcγRIIb and FcγRIIIa (produced from transient CHO cells and purified using IMAC and size exclusion chromatography) are prepared at final concentrations of 10,000.0, 5,000, 2,500, 1,250, 625, 313, 157, 78, and 39 nM by two-fold serial dilution into running buffer.
(§2) Each analysis cycle consists of: (1) capturing antibody samples on flow cells; (2) injection of each human FcγRI, FcγRIIa, FcγRIIb and FcγRIIIa concentration over the flow cells at 40 μL/min for 60 seconds followed by return to buffer flow for 120 seconds to monitor dissociation phase; (3) regeneration of chip surfaces with injection of 10 mM glycine, pH 2.0. for 30 seconds at 50 μL/min over all flow cells; and (4) equilibration of chip surfaces with a 50 μL (60-sec) injection of HBS-EP+ running buffer. Data are processed using standard reference-subtracted method fit to a 1:1 binding model using Biacore T200 […] Evaluation software, version 1.0, to determine the equilibrium dissociation constant (KD) which is calculated from the relationship KD=koff/kₒₙ, and is in molar units.

human FcγRIIa (CD32a) = molecular target: T4, human FcγRIIa (CD32a) (human, UniProt P12318 34-217, limits assumed); assay: as above
T4 construct: Soluble analyte in SPR
T4 sequence (looked up): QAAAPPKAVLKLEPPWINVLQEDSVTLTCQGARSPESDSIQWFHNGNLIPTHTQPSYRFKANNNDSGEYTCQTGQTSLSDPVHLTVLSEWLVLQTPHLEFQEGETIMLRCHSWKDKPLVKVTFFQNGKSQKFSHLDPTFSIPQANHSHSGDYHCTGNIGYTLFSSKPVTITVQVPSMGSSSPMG
Experimental: as §1, §2

human FcγRIIb (CD32b) = molecular target: T5, human FcγRIIb (CD32b) (human, UniProt P31994 43-217, limits assumed); assay: as above
T5 construct: Soluble analyte in SPR
T5 sequence (looked up): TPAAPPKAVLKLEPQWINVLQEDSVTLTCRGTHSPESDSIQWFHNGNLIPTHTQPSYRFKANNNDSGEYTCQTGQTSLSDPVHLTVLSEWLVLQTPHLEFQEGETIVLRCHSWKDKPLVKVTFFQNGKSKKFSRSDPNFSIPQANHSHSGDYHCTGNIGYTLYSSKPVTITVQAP
Experimental: as §1, §2

human FcγRIIIa (CD16a) = molecular target: T6, human FcγRIIIa (CD16a) (human, UniProt P08637 17-208); assay: as above
T6 construct: Soluble analyte in SPR
T6 sequence (P08637 17-208 limits assumed): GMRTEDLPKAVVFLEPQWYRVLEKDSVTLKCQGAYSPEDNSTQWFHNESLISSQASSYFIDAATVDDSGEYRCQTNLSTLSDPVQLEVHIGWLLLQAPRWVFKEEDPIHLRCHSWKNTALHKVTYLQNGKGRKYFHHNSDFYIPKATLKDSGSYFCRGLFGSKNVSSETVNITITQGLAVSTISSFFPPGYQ
Experimental: as §1, §2

human IL-23 [5] = molecular target: T1, human IL-23; assay: SPR, Biacore T200, antibody captured on protein A, antigen as analyte, 37 °C, 1:1 model, n=3
Experimental: (§3) A CM4 chip (Biacore P/N BR-100534) containing immobilized protein A (generated using standard NHS-EDC amine coupling) on all four flow cells is used to employ a capture methodology. IgG bispecific antibody samples are prepared by dilution of 5 μg/mL into running buffer and approximately 100-150 RU is captured on the flow cells. […] Human TNFα are prepared at final concentrations of 50.0, 25.0, 12.5, 6.25, 3.12, 1.56, 0.78, 0.39, 0.19 and 0 (blank) nM by dilution into running buffer.
(§4) Each analysis cycle consists of (1) capturing antibody samples on flow cells (Fc3); (2) injection of each human IL-23 concentration over the flow cells at 80 μL/min for 200 seconds followed by return to buffer flow for 900 seconds to monitor dissociation phase; (3) injection of each human TNFα concentration over the flow cells at 80 µL/min for 200 seconds followed by return to buffer flow for 900 seconds to monitor dissociation phase; (4) regeneration of chip surfaces with injection of 10 mM glycine, pH 2.0, for 30 seconds at 50 μL/min over all flow cells; and (5) equilibration of chip surfaces with a 50 μL (60-sec) injection of HBS-EP+ running buffer. Data are processed using standard reference-subtracted method fit to a 1:1 binding model using Biacore T200 Evaluation software, version 1.0, to determine the association rate (kₒₙ, M⁻¹s⁻¹ units), dissociation rate (koff, s⁻¹ units), and RUₘₐₓ (RU units). The equilibrium dissociation constant (KD) is calculated from the relationship KD=koff/kₒₙ, and is in molar units.

human TNFα [6] = molecular target: T2, human TNFα; assay: as above
Experimental: as §3, §4

[7] = molecular target: T7, human complement component C1q (human, UniProt P02745 23-245; P02746 28-253; P02747 29-245); assay: ELISA, antibody coated on the plate (10 to 0.19 µg/mL), human C1q at 10 µg/mL, anti-C1q-HRP detection
T7 construct: Bought protein; also called human C1q
T7 sequence (P02745 23-245 limits assumed, chain 1 of 3): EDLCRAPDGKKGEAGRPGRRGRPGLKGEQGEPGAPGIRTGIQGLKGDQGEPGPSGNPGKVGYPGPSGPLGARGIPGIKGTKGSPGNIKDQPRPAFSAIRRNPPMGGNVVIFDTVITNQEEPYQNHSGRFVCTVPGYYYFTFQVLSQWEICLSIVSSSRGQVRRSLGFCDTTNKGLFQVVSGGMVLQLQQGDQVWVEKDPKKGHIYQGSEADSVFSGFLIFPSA
T7 sequence (P02746 28-253 limits assumed, chain 2 of 3): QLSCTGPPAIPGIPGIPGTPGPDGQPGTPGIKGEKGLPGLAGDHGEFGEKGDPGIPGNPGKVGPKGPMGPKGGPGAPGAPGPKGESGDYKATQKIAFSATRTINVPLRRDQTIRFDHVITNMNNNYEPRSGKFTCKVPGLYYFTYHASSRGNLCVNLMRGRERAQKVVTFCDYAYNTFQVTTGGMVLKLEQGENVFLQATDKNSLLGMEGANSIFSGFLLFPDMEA
T7 sequence (P02747 29-245 limits assumed, chain 3 of 3): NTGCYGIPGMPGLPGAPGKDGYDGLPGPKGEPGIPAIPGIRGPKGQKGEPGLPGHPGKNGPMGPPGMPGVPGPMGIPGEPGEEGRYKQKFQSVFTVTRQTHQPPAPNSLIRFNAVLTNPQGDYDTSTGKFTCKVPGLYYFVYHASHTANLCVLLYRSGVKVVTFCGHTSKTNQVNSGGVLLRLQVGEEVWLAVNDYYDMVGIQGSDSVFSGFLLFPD
Experimental: Plates are incubated overnight at 4° C. with coating agent (to coat wells with antibody) followed with two hours of blocking (casein, 200 μL) at room temperature and then three washes with wash buffer (1×TBE with 0.05% Tween 20).
100 μL of human C1q (10 μg/mL) (MS Biomedical) in casein blocking reagent is added to each well and plates are incubated for 3 hours at room temperature. Following incubation plates are washed three times followed by addition of 100 μL/well (at 1:800 dilution) of Sheep anti-human C1q-HRP (Abcam #ab46191) in casein blocker. Plates are incubated for 1 hour at RT. Following incubation, plates are washed 6 times with wash buffer, and 100 μL/well of TMB Substrate (Pierce) is added to each well. Plates are incubated for 7 minutes followed by addition of 100 μL of 1.0N HC1 to each well to stop the reaction. Optical density is immediately measured using a colorimetric microplate reader set to 450 nm.

Chain of non-cleavable form of human membrane TNFα on CHO cells (P01375 whole entry): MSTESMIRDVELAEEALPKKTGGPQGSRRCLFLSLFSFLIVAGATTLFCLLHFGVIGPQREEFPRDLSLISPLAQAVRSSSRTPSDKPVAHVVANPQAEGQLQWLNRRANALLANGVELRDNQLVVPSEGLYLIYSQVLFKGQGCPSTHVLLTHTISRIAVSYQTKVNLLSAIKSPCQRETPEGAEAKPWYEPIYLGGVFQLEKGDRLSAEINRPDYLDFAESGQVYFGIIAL

relative EC50, human complement-mediated effector function (CDC) on CHO cells carrying non-cleavable human membrane TNFα (T74E construct as internal standard = 1) [1]: 0.74 relative to internal standard
IC50, inhibition of IL-23-induced Stat 3 phosphorylation (luciferase) in Kit225 cells (human IL-23 [2]): 0.066 pM
Relative EC50, induction of FcγRIIIa-mediated effector function (NFAT luciferase in Jurkat cells with CHO cells carrying non-cleavable human membrane TNFα; T74E construct as internal standard = 1) [4]: 0.75 relative to internal standard
Kd (human FcγRI (CD64)): 0.0648 nM
Kd (human FcγRIIa (CD32a)): 720 nM
Kd (human FcγRIIb (CD32b)): 4 µM
Kd (human FcγRIIIa (CD16a)): 260 nM
Kd (human IL-23 [5]): 0.245 nM
koff (human IL-23 [5]): 0.000101 s⁻¹
kon (human IL-23 [5]): 412000 M⁻¹ s⁻¹
Kd (human TNFα [6]): 0.0496 nM
koff (human TNFα [6]): 0.000155 s⁻¹
kon (human TNFα [6]): 3.1e+06 M⁻¹ s⁻¹
binding result [7]: binds
B1: exemplified IgG bispecific antibody (anti-TNFα / anti-IL23p19) (bispecific antibody)
heavy 1: not shown
light 1: not shown
heavy 2: QVQLVQSGAEVKKPGSSVKVSCKASGYPFTRYVMHWVRKAPGQGLEWMGYINPYNDGVNYNEEFKGRVTITADTSTSTAYMELSSLRSEDTAVYYCARNWDTGLWGQGTTVTVSSASTKGPSVFPLAPSSKSTSGGTAALGCLVKDYFPEPVTVSWNSGALTSGVATGPAVLQSSGLYSLSSVVTVPSSSLGTQTYICNVNHKPSNTKVDKKVEPKSCDKTHTCPPCPAPELLGGPSVFLFPPKPKDTLMISRTPEVTCVVVDVSHEDPEVKFNWYVDGVEVHNAKTKPREEQYNSTYRVVSVLTVLHQDWLNGKEYKCKVSNKALPAPIEKTISKAKGQPREPQVSTLPPSREEMTKNQVSLMCLVYGFYPSDIAVEWESNGQPENNYKTTPPVLDSDGSFFLYSVLTVDKSRWQQGNVFSCSVMHEALHNHYTQKSLSLSPG
light 2: RIQMTQSPSSLSASVGDRVTITCKASDHIGKFLTWYQDKPGKAPKLLIYGATSKLTGVPSRFSGSGSGTDFTLTISSLQPEDFATYYCQQYWSTPFTFGGGTKVEIKGQPKAAPSVTLFPPSSEELQANKATLVCYISDFYPGAVTVAWKADSSPVKAGVETTTPSKQSNNKYAAWSYLSLTPEQWKSHRSYSCQVTHEGSTVEKTVAPTEC
modifications: N-terminal glutamine (residue 1) may be converted to pyroglutamic acid; C-terminal lysine (residue 445) may be truncated post-translationally; C-terminal lysine (residue 451) may be truncated post-translationally
notes: Heterodimeric IgG1 of four different chains; also called exemplified bispecific antibody; IgG bispecific antibody of the present invention
IC50, inhibition of killing of L929 cells by CHO cells carrying non-cleavable membrane bound human TNFα (MTT) [1]: 3.99 nM
IC50, inhibition of soluble human TNFα-induced killing of L929 cells (MTT) (human TNFα [3]): 0.32 nM
